# Results from patent US20220169997.
# Experiments:
# [1] = tested on: PR402: SP(HSA)-PTEN-L-HSA-6xHis
# [2] = tested on: PR405: SP(HSA)-PTEN-L-MMP2/9-HSA-6xHis
# [3] = tested on: PR406: SP(HSA)-PTEN-L-cathepsin B-HSA-6xHis
# [4] = tested on: PR407: SP(HSA)-PTEN-L-cathepsin B*-HSA-6xHis
# [5] = tested on: PR408: SP(HSA)-PTEN-L-cathepsinB**-HSA-6xHis
# Recombinant active MMP2 protease (Enzo cat. #BML-SE237-0010), sequence (chain, as listed by the source): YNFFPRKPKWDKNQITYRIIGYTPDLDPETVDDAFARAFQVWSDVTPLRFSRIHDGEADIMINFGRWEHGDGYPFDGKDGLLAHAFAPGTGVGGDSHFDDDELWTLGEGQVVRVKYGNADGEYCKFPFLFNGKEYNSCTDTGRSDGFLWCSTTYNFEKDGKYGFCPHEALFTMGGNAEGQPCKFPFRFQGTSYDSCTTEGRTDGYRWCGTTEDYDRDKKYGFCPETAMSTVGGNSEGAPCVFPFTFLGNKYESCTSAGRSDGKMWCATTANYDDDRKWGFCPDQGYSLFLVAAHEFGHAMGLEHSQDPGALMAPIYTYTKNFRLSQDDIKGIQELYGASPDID
Substance,"in vitro cleavage of the fusion in CHO-3E7 supernatant, WB with F-1 anti-PTEN (no cleavage) [1]","in vitro cleavage of the fusion in CHO-3E7 supernatant (0.3 µg/ml CATSB), WB with F-1 anti-PTEN (no cleavage) [2]","in vitro cleavage of the fusion in CHO-3E7 supernatant (0.3 µg/ml CATSB), WB with F-1 anti-PTEN (no cleavage) [3]","in vitro cleavage of the fusion in CHO-3E7 supernatant (20 nM MMP2, 0/4/21 h), WB with F-1 anti-PTEN [2]","in vitro cleavage of the fusion in CHO-3E7 supernatant, WB with F-1 anti-PTEN (no cleavage) [3]","in vitro cleavage of the fusion in CHO-3E7 supernatant, WB with F-1 anti-PTEN (no cleavage) [4]","in vitro cleavage of the fusion in CHO-3E7 supernatant, WB with F-1 anti-PTEN (no cleavage) [5]"
Active CATSB (BioVision #7580-5),PR402 was not appreciably cleaved by either recombinant MMP2 or CATSB,PR405 (SEQ ID NO:129; cDNA SEQ ID NO:157) was not cleaved by CATSB,though it did not cleave PR406 (SEQ ID NO:130; cDNA SEQ ID NO:158),–,–,–,–
Recombinant active MMP2 protease (Enzo cat. #BML-SE237-0010),PR402 was not appreciably cleaved by either recombinant MMP2 or CATSB,–,–,MMP2 did however cleave its consensus site (SEQ ID NO:165) on PR405 only; this cleavage released a PTEN-L-like fragment (˜70 KDa),MMP2 did however cleave its consensus site (SEQ ID NO:165) on PR405 only,MMP2 did however cleave its consensus site (SEQ ID NO:165) on PR405 only,MMP2 did however cleave its consensus site (SEQ ID NO:165) on PR405 only
